Results: ChEMBL document CHEMBL2146416

Legend:
Details in all cases: Sus scrofa
[1] = tested on: NCc1ccc(C(=O)O)[nH]1; assay: (§1) Ratio of Kcat to Km for pig GABA aminotransferase
[2] = tested on: NCc1ccc(C(=O)O)s1; assay: as §1
[3] = tested on: NCc1c[nH]c(C(=O)O)c1; assay: as §1
[4] = tested on: NCc1ccc(C(=O)O)o1; assay: as §1
[5] = tested on: NCc1coc(C(=O)O)c1; assay: as §1
[6] = tested on: NCc1cocc1C(=O)O; assay: as §1
[7] = tested on: NCc1csc(C(=O)O)c1; assay: as §1
[8] = tested on: NCc1ccc(C(=O)O)[nH]1; assay: (§2) Activity of pig GABA aminotransferase using alpha-ketoglutarate as substrate after 16 hrs by Hanes-Woolf plot analysis
[9] = tested on: NCc1ccc(C(=O)O)s1; assay: as §2
[10] = tested on: NCc1c[nH]c(C(=O)O)c1; assay: as §2
[11] = tested on: NCc1ccc(C(=O)O)o1; assay: as §2
[12] = tested on: NCc1coc(C(=O)O)c1; assay: as §2
[13] = tested on: NCc1cocc1C(=O)O; assay: as §2
[14] = tested on: NCc1csc(C(=O)O)c1; assay: as §2
[15] = tested on: NCc1cscc1C(=O)O; assay: as §2

Chain of 4-aminobutyrate aminotransferase, mitochondrial (Sus scrofa), P80147 (P80147 whole entry): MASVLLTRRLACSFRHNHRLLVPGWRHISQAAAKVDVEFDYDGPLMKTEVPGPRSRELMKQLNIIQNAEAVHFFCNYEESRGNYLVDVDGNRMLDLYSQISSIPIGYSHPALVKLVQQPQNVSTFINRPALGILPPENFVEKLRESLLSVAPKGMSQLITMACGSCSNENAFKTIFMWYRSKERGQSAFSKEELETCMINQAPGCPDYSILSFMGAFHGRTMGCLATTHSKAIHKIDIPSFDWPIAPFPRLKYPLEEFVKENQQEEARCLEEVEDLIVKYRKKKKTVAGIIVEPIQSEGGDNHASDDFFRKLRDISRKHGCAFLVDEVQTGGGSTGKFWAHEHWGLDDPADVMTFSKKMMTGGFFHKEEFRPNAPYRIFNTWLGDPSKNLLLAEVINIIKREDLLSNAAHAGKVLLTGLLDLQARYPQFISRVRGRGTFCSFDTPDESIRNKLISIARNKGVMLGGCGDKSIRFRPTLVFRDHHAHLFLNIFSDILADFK

Which results are given for “4-aminobutyrate aminotransferase, mitochondrial (Sus scrofa), P80147”?
kcat/Km [1]: 0.00267 M⁻¹ s⁻¹; kcat/Km [2]: 0.0267 M⁻¹ s⁻¹; kcat/Km [3]: 0.04 M⁻¹ s⁻¹; kcat/Km [4]: 0.267 M⁻¹ s⁻¹; kcat/Km [5]: 0.123 M⁻¹ s⁻¹; kcat/Km [6]: 0.005 M⁻¹ s⁻¹; kcat/Km [7]: 0.00517 M⁻¹ s⁻¹; Km [8]: 9500 µM; kcat [8]: 1.5 ×10⁻³ /min; Km [9]: 6300 µM; kcat [9]: 1 ×10⁻² /min; Km [10]: 1400 µM; kcat [10]: 3.4 ×10⁻³ /min; Km [11]: 2100 µM; kcat [11]: 3.4 ×10⁻² /min; Km [12]: 310 µM; kcat [12]: 2.3 ×10⁻³ /min; Km [13]: 2800 µM; kcat [13]: 8.3 ×10⁻⁴ /min; Km [14]: 1700 µM; kcat [14]: 5.2 ×10⁻³ /min; Km [15]: > 10000 µM
